From US20220332804A1 (CSL INNOVATION, published 2022) come the findings set out here.

Common to all, as to assay: SPR, KD relative to WT C2;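 note: biacore SPR at 37 °C, anti-C2 mAbs captured on anti-human IgG chips with alanine or serine point mutants of C2 as analyte, KD from 1:1 fit compared with wild-type C2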
On the technique in general: In SPR one partner is held on a chip, and binding of the other changes the refractive index at the surface.

The target in experiment [1] is T1, human C2 F689A (human, UniProt P06681 21-752).
T1 sequence: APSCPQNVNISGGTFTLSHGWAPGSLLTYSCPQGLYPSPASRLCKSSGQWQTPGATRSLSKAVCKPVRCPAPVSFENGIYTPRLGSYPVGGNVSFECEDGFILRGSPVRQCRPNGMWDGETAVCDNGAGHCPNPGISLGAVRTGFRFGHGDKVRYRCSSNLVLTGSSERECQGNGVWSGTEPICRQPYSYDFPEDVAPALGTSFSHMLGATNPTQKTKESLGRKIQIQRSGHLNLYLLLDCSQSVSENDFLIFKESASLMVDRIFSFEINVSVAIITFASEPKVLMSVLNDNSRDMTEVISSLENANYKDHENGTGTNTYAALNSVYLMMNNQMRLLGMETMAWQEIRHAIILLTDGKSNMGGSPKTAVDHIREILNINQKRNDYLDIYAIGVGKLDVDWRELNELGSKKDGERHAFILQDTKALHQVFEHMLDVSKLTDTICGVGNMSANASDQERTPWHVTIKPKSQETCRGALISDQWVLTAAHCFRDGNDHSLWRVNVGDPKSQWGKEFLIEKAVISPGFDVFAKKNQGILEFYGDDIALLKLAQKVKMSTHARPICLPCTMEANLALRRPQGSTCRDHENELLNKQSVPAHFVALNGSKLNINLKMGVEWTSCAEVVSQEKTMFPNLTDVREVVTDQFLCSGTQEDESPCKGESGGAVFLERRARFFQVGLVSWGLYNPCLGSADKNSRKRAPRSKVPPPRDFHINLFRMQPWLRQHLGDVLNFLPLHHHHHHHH

The target in experiment [2] is T2, human C2 H331A (human, UniProt P06681 21-752).
T2 sequence: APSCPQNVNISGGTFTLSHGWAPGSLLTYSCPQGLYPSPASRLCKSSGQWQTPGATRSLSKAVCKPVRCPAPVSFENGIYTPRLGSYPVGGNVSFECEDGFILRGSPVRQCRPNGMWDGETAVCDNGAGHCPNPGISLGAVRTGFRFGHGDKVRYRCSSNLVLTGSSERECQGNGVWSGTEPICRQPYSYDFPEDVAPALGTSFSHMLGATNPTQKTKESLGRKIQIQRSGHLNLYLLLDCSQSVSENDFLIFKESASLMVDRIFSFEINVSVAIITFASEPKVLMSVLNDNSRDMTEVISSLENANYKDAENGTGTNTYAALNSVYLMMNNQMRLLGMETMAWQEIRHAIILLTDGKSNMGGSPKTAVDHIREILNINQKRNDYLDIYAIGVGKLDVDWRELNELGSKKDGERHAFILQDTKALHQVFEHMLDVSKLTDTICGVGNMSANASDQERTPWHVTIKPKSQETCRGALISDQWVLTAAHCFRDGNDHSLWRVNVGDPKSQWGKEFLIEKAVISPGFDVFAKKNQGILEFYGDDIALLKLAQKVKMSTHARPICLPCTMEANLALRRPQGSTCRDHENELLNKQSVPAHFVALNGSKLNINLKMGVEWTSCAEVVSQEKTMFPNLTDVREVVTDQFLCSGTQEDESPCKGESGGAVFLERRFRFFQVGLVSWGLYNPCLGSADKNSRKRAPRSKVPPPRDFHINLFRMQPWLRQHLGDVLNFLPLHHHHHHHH

Experiment [3] deals with T3, human C2 V418A (human, UniProt P06681 21-752).
T3 sequence: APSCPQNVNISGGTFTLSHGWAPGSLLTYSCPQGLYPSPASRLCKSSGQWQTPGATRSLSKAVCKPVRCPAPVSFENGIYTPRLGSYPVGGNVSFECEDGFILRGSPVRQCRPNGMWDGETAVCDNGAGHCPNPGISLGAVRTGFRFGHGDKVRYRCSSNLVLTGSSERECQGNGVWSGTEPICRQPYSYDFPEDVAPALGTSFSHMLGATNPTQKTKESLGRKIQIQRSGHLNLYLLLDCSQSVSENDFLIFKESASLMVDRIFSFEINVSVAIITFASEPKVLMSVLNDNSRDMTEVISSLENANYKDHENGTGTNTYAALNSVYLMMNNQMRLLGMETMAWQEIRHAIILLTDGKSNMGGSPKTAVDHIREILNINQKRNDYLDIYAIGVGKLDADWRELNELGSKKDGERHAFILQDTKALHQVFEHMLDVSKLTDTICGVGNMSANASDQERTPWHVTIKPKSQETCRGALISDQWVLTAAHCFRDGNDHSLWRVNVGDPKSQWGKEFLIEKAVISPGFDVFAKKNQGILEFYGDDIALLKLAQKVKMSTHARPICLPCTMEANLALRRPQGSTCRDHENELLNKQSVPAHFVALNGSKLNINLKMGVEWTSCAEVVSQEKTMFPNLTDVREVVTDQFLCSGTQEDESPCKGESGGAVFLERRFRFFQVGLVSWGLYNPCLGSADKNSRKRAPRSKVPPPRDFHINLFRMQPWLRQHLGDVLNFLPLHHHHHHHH

The target of experiment [4] is T4, human C2 L439A (human, UniProt P06681 21-752).
T4 sequence: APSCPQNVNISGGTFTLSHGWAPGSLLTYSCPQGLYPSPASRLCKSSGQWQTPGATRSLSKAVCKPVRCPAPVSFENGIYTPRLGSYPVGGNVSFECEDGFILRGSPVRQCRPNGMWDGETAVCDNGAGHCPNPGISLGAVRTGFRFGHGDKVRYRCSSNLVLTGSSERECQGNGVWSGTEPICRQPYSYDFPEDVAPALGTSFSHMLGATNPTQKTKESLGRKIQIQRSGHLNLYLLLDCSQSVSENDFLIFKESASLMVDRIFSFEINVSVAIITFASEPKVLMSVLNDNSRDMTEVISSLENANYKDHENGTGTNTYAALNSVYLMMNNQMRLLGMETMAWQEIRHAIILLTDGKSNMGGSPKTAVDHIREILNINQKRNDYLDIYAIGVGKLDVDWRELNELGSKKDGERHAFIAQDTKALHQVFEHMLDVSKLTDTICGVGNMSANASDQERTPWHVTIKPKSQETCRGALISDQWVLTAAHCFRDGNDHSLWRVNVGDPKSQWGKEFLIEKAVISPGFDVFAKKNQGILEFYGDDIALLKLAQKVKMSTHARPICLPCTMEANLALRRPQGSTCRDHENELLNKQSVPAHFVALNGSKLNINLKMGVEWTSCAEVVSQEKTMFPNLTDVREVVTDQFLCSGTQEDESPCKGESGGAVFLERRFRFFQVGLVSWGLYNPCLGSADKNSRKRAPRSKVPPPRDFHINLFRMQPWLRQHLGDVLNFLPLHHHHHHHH

B1: RF16-242 (antibody, human IgG4 S228P, lambda, V domains shown)
VH: EVQLLQSGAEVKKPGESLKISCKGSGYSFTSYWIGWVRQMPGKGLEWMGIIYPGDSDTRYSPSFQGQVTISADKSISTAYLQWSSLKASDTAMYYCARRGHYGDYFDYWGQGTLVTVSS
VL: SYELTQPPSVSVSPGQTARITCSGDALPKKYAYWYHQKSGQAPVLVIYEDRRRPSEIPERFSGSSSGTMATLTITGAQVEDEGVYFCYSRDRAGNQRVFGGGTQLTVLG
notes: pH-dependent anti-C2 antibody from a phage display library
For B1, the Fold diff was found to be 1 fold in experiment [1], 27 fold in experiment [2], 1 fold in experiment [3] and 24 fold in experiment [4].
